Values quoted from earlier work, collected in patent US4347323A, “Glycerol kinase from Streptomyces canus” (Toyo Jozo Kabushiki Kaisha, priority 1979, dated 1982).

Conditions: known glycerol kinases

B1: E.Co-GK: known glycerol kinase of Escherichia coli (protein, UniProt P0A6F3 2-502, looked up)
Glycerol kinase: TEKKYIVALDQGTTSSRAVVMDHDANIISVSQREFEQIYPKPGWVEHDPMEIWATQSSTLVEVLAKADISSDQIAAIGITNQRETTIVWEKETGKPIYNAIVWQCRRTAEICEHLKRDGLEDYIRSNTGLVIDPYFSGTKVKWILDHVEGSRERARRGELLFGTVDTWLIWKMTQGRVHVTDYTNASRTMLFNIHTLDWDDKMLEVLDIPREMLPEVRRSSEVYGQTNIGGKGGTRIPISGIAGDQQAALFGQLCVKEGMAKNTYGTGCFMLMNTGEKAVKSENGLLTTIACGPTGEVNYALEGAVFMAGASIQWLRDEMKLINDAYDSEYFATKVQNTNGVYVVPAFTGLGAPYWDPYARGAIFGLTRGVNANHIIRATLESIAYQTRDVLEAMQADSGIRLHALRVDGGAVANNFLMQFQSDILGTRVERPEVREVTALGAAYLAGLAVGFWQNLDELQEKAVIEREFRPGIETTERNYRYAGWKKAVKRAMAWEEHDE
pH stability: 6.5-7 pH
